Reference: patent US20250388666A1 (BRIGHAM AND WOMEN S HOSPITAL, published 2025)
Values joined by “and” are separate entries in the source; they are usually repeats but may differ in a detail not shown here. Equal entries are not always repeated.

T1: CEACAM1-HIS (Sino Biologics Inc.) (Homo sapiens (Human), UniProt P13688 35-428)
T1 construct: bought; not shown: His tag
T1 sequence: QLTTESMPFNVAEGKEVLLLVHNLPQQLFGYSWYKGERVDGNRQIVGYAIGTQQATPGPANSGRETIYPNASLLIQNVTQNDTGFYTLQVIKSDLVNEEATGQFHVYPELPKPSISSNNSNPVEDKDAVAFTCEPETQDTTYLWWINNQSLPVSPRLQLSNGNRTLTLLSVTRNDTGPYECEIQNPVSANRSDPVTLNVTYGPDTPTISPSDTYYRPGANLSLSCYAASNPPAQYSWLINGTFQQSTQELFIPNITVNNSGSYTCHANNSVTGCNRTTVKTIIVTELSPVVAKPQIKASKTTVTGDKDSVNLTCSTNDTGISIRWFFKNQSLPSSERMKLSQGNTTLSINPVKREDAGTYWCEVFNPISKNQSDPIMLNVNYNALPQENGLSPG

T2: CEACAM3 (Sino Biological) (human, UniProt P40198 35-155, limits assumed)
T2 construct: also called hCEACAM3
T2 sequence (looked up): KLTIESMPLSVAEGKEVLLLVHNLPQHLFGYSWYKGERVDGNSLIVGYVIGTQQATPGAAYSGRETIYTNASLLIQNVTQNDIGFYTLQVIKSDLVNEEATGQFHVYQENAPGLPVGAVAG

T3: CEACAM6 on transfected HeLa cells (UniProt P40199 35-320, limits assumed)
T3 construct: whole, on cells; also called C6
T3 sequence (looked up): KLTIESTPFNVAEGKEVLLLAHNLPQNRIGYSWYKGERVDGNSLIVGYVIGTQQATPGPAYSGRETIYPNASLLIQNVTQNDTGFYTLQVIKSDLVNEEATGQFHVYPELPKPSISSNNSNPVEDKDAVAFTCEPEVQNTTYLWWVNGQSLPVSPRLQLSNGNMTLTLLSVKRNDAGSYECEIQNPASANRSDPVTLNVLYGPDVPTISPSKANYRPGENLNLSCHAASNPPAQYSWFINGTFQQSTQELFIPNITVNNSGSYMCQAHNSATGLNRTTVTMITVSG

T4: CEACAM1 (Sino Biological) (human, UniProt P13688 35-428, limits assumed)
T4 construct: may be the same as CEACAM1-HIS; also called hCEACAM1; biotinylated soluble CEACAM1
T4 sequence: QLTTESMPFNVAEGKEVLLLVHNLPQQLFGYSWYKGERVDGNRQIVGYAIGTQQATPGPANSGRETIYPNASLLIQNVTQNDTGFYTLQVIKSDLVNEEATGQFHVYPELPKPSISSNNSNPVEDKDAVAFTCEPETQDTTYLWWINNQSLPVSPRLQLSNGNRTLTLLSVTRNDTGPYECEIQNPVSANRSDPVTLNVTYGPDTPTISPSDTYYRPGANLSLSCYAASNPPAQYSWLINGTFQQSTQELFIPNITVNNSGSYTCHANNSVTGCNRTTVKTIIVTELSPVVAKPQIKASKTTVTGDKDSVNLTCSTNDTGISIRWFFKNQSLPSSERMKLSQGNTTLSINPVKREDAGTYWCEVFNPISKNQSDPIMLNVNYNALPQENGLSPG


How the values were obtained:
[1] = molecular target: T1, CEACAM1-HIS (Sino Biologics Inc.); test: SPR multi-cycle, IgG on Protein A
Procedure: As an alternative approach to assess the binding of the antibody combinations and the control antibodies to CEACAM1, a kinetic analysis was performed on a Biacore T200 running Biacore T200 Evaluation Software V2.0.1. All experiments were run at 25° C. with HBS-P+ running buffer (pH 7.4).
For multi-cycle kinetic analysis purified antibody was immobilized at a protein concentration of 1 μg/mL in HBS-P+. At the start of each cycle, antibody was captured on Protein A to give an RU of ˜100 and the surface allowed to stabilize. Kinetic data was obtained at a flow rate of 35 μl/min to minimize any potential mass transfer effects. Multiple repeats of the blank (no CEACAM1) and a repeat of a single concentration of the analyte were programmed into the kinetic run in order to check the stability of both the surface and analyte over the kinetic cycles. For kinetic analysis, a 2-fold dilution series was selected from 100 to 1.5625 nM CEACAM1. The association phase of CEACAM1 was monitored initially for 180 seconds. In the subsequent experiment a longer association time (275 seconds) was used in order to better reach steady state. The dissociation phase was measured for 250 seconds. Regeneration of the Protein A surface was conducted using 2 injections of 10 mM glycine-HCL pH 1.5 at the end of each cycle.
The signal from the reference channel Fc1 was subtracted from that of Fc2, Fc3 and Fc4 to correct for differences in non-specific binding to a reference surface, a global Rmax parameter was used in the 1-to-1 binding model. The relative KD compared to the chimeric parental antibody was calculated by dividing the KD of the Composite Human Antibody™ variants by that of the chimeric parental antibody on the same chip.

[2] = molecular target: T2, CEACAM3 (Sino Biological); test: binding ELISA on plate-coated CEACAM (0.5 µg/mL); antibody at 1.67, 0.062 and 0.0069 µg/mL; signal as % of parent IgG on CEACAM1 at 1.67 µg/mL on the same plate
[3] = molecular target: T3, CEACAM6 on transfected HeLa cells; test: flow cytometry, transfected HeLa
Procedure, shortened: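 HeLa cells transfected separately with CEACAM1, CEACAM5 or CEACAM6 were stained with test antibodies, then fluorochrome-conjugated anti-isotype (human IgG4 or mouse IgG1) secondary plus DAPI viability dye. Binding read by flow cytometry.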

[4] = molecular target: T4, CEACAM1 (Sino Biological); test: SPR multi-cycle, IgG on Protein A

| Binder | Kd [1] | koff [1] | kon [1] | relative KD to chimeric parental antibody [1] [ratio] | binding result [2] | relative fluorescence intensity [3] | relative KD to Parent [4] [ratio] |
| --- | --- | --- | --- | --- | --- | --- | --- |
| chimeric parental antibody VH0/Vκ0 (antibody, IgG4, V domains shown, IgG4 (S241P), kappa; also called Chimera; chimeric antibody) VH: EVQLVESGGGFVKPGGSLKLSCAASGFSFSDYYLYWVRQTPEKRLEWVATISVGGGNTSYPDSVKGRFTISRDNAKNNLYLQMSSLKSEDTAMYYCTRGLYYGPAWFAYWGQGTLVTVSA VL: not shown | 27.2 nM and 22.3 nM and 19.5 nM | 0.0053 s⁻¹ and 0.00571 s⁻¹ and 0.00531 s⁻¹ | 195000 M⁻¹ s⁻¹ and 256000 M⁻¹ s⁻¹ and 272000 M⁻¹ s⁻¹ | 1 | – | – | – |
| VH2 N56Q/Vκ4 S27(f)A IgG (antibody, V domains shown, IgG4 S241P, kappa; also called Parent; Parent IgG) VH: EVQLLESGGGLVQPGGSLRLSCAASGFSFSDYYLYWVRQAPGKGLEWVATISVGGGQTSYADSVKGRFTISRDNSKNTLYLQMNSLRAEDTAMYYCTRGLYYGPAWFAYWGQGTLVTVSS VL: not shown | – | – | – | – | no binding (tested: 1.67 µg/mL) | 1.31 | 1 |
